Experimental data: article doi:10.1101/2020.04.20.033787 (bioRxiv, 2020)

Target: SBF (^FLAGSwi4-Swi6 complex) (S. cerevisiae, UniProt P25302 1-1093; P09959 1-803)
Experiment: pull-down

Chain of SBF (^FLAGSwi4-Swi6 complex) (P25302 whole entry, chain 1 of 2): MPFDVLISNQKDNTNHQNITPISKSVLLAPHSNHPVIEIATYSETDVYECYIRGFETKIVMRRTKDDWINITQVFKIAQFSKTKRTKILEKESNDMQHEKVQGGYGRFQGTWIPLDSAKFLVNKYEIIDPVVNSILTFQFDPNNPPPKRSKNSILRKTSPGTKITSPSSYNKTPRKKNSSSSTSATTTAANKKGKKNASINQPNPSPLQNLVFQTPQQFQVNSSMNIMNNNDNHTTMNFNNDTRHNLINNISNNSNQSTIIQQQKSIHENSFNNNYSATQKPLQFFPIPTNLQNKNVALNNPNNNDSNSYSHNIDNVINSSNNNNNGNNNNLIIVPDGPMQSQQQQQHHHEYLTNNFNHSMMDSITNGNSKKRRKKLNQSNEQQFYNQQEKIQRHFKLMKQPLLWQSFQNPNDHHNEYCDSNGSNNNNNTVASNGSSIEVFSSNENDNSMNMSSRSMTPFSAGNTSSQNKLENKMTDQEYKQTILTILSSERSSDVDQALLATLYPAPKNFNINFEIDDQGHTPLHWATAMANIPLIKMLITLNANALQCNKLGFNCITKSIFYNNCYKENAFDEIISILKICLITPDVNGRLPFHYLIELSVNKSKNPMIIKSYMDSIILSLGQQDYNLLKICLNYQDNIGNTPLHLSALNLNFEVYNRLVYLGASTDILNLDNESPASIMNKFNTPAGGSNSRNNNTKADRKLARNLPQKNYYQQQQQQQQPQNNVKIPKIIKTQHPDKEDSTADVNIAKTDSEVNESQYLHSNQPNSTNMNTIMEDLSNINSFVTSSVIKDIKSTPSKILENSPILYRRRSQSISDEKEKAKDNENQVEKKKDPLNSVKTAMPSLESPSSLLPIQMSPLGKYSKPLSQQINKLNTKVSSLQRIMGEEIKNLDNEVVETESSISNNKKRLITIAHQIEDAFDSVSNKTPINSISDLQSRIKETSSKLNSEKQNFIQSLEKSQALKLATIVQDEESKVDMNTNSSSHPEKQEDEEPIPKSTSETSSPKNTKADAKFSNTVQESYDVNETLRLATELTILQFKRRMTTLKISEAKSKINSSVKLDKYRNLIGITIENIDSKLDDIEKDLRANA
Chain of SBF (^FLAGSwi4-Swi6 complex) (P09959 whole entry, chain 2 of 2): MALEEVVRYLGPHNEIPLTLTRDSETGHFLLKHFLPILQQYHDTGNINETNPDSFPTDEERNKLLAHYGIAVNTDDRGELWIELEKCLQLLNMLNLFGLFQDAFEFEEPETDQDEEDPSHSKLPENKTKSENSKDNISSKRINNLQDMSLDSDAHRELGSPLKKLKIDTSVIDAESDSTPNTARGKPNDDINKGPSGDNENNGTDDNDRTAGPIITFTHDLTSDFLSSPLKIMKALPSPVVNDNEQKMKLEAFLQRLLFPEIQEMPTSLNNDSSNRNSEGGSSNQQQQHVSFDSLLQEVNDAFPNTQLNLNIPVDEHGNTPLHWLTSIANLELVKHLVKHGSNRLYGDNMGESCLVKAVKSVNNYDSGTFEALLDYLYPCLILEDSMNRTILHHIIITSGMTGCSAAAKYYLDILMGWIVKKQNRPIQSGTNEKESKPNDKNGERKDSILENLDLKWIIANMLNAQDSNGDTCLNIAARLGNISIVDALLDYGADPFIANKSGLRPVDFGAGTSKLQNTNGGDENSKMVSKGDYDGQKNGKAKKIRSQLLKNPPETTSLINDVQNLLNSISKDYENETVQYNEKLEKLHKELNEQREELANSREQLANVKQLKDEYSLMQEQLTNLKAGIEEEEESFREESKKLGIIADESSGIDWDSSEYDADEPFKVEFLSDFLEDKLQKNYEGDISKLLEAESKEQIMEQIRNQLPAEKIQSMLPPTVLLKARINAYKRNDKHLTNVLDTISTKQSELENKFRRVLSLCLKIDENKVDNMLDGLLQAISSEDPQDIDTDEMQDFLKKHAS

B1: ^GSTWhi5 (recombinant) (natural protein, S. cerevisiae, UniProt Q12416 1-295, looked up)
chain: MSLRTPKRSRTSDEQEQEQEQEQVQNPDTHVNNEHQQRPGPTTLLSTPVRLKNGFGTPSPPSPPGITKSITKSRRRPSTTSLQGIFMSPVNKRRVGITAHGRVYDHNDDGHESESEDDENEEENENQKKYDGHVSMPLLPPTTPKSRRSEVFLSPSPRLRSPPTAARRSTGERPIREISHTLRTRLNYALVKLQNGWTDKTLPELETELAPAVQTPPRRYHNRFPDSADAGTSAHTAFLQALGGHPPREEATAVETLMLLSSPTKKQQHRPVPATSAGEPTDETEPESDTEVETS
B1: binds.
